Measurements reported in PMC8335659.

Target: GST-STG^9D
Test: pull-down; purified GST fusion of the STG C terminus incubated 1 h at 4 °C with lysate of HEK293T cells expressing FLAG-tagged μ2 or μ3, with or without 500 μM MPR^AA or MPR^DD peptide; glutathione Sepharose; blots with anti-FLAG and anti-GST

percent of μ3 pulled down (GST-STG^9A = 100%): 21%
B1: FLAG-tagged μ3 (natural protein)
chain: MIHSLFLINCSGDIFLEKHWKSVVSQSVCDYFFEAQEKAADVENVPPVISTPHHYLISIYRDKLFFVSVIQTEVPPLFVIEFLHRVADTFQDYFGECSEAAIKDNVVIVYELLEEMLDNGFPLATESNILKELIKPPTILRSVVNSITGSSNVGDTLPTGQLSNIPWRRAGVKYTNNEAYFDVVEEIDAIIDKSGSTVFAEIQGVIDACIKLSGMPDLSLSFMNPRLLDDVSFHPCIRFKRWESERVLSFIPPDGNFRLISYRVSSQNLVAIPVYVKHSISFKENSSCGRFDITIGPKQNMGKTIEGITVTVHMPKVVLNMNLTPTQGSYTFDPVTKVLAWDVGKITPQKLPSLKGLVNLQSGAPKPEENPNLNIQFKIQQLAISGLKVNRLDMYGEKYKPFKGVKYVTKAGKFQVRT
